The values that follow come from patent JP2001526021A.

For this test, the target named is ブラジキニン受容体 (bradykinin receptor) on SV-T2 cells. The test is described as follows: cell-based or functional assay.

With ブラジキニン (bradykinin) (peptide), the PGE2合成 (PGE2 synthesis in SV-T2 cells, ELISA) is 4 倍 (fold) and the PGE2合成 (PGE2 synthesis in SV-T2 cells, Fig. 7C) was 4 倍 (fold).
